From patent US20070128190A1 (GLENMARK PHARMACEUTICALS S A, published 2007) come the findings set out here.

Residue numbers refer to the chain shown, from its start. In names and notes the source's numbering stands. Read-outs that look alike come from different tables or passages of the source.

Assay [1] deals with T1, TMC-2206.
T1 construct: murine IgG1/κ secreted by hybridoma BHA2.1; labelled with Eu-N1-ITC where used as tracer; also called BHA2.1
In words: ELISA, GST fusion protein on immobilized TMC-2206. As for the experimental part:
The Kᵢ assays were performed as described above in Example 2. […] Plates were sealed and coating occurred overnight at 4° C. The next morning, the plates were washed twice with TBS solution and then blocked using 200 μL of the blocking solution described above for 1 hour at room temperature with shaking. After blocking, the blocking solution was removed but the wells were not washed. Instead, a serial dilution of GST fusion protein was made, added to the wells and then incubated for 2 hours at room temperature with shaking. The wells were then aspirated and a TBS washing buffer applied for 5 minutes at room temperature. The washing step was repeated twice more before the secondary antibody was applied. The secondary antibody step consisted of Amersham's HRP-conjugated rabbit anti-GST antibody diluted 1:2000 in blocking buffer. One hundred μL of secondary antibody was added to each well and incubated at room temperature for 1.5 hours with shaking. The wells were again aspirated and washed three times with wash buffer before adding the substrate reaction mixture. One hundred μL of substrate reaction mixture (1:1 dilution of TMB kit) was then added to each well for 6 minutes. […] The reaction within the wells was then read and quantified by spectrophotometric absorption using the Molecular Dynamics plate reader and associated Softmax software, respectively. […]

For assay [2], the target named is T1, TMC-2206. The assay is described as follows: fusion protein competing Eu-TMC-2206 off α2β1-coated plate. Here is the method: Wells in a 96 well microtiter plate were coated with platelet α2β1-integrin (custom-coated with human platelet α2β1 by GTI Inc., Wis.) and then blocked with nonfat milk. […] After concentration in prewashed MicroSep concentrators (30-kDa cutoff; Pall Life Sciences at 9500 rpm (7000×g) in a JA-20 rotor (Beckman Instruments, Inc.) for 20 minutes at 4° C.), antibodies were adjusted to 4.0 mg/mL with PBS containing a final concentration of 100 mM NaHCO₃, pH 9.3. The mAb/bicarbonate mixture (0.250 mL) was gently mixed into a vial containing 0.2 mg N¹-(p-isothiocyanatobenzyl)-diethylenetriamine-N¹,N²,N³N³-tetraacetic acid chelated with Eu³⁺ (Eu-N1-ITC; Perkin Elmer Life Sciences) and reacted overnight at 4° C. without stirring. Each labeled antibody mixture was applied to a separate PD-10 column (GE Biosciences, Piscataway, N.J.) pre-equilibrated with Running Buffer (50 mM Tris, pH 7.4 and 138 mM NaCl). Fractions (0.5 mL) were collected and assayed for total protein (Bradford reagent; Bio-Rad Laboratories, Hercules, Calif.) using a SpectraMax 384 absorbance plate reader and for europium after 1:10.000 dilution in DELFIA Enhancement Solution (Perkin-Elmer) by time-resolved fluorescence (TRF) using a Victor2 multi-label plate reader (Perkin Elmer). The fractions that were positive for both protein and Eu label were pooled and applied to new PD-10 columns and samples collected and assayed for total protein and for europium content by TRF calibrated against a europium standard solution (Perkin-Elmer) to calculate the fluor: protein ratio.

Assay [3] has as its target T1, TMC-2206. Described as above. Here is the method: After incubating the sealed plates for 1 hr at 37° C. to allow binding to reach equilibrium, 2 μL samples were transferred from each well into a fresh well containing DELFIA Enhancement Solution (100 μL/well; Perkin-Elmer) for the measurement of free (unbound) label. Enhancement Solution (100 μL/well) was added to the emptied wells for the measurement of bound label. The plate was shaken (Titer Plate Shaker speed setting of 5 for 5 minutes at room temperature) and time-resolved fluorescent (TRF) intensities were read using a Victor2 multi-label plate reader (Perkin-Elmer Wallac, Boston, Mas.).
The fusion proteins were then expressed and purified as described above for the human GST-α2 I domain fusion protein. […] Therefore, these and the primate fusion proteins were further purified by size exclusion chromatography on a Sephadex 75 10/30 (GE-Amersham) column (primate) by FPLC on an Akta-Basic FPLC system (GE-Amersham) to yield a monomeric fraction. […] The Kᵢ assays were performed as described above in Example 2. […] Plates were sealed and coating occurred overnight at 4° C. The next morning, the plates were washed twice with TBS solution and then blocked using 200 μL of the blocking solution described above for 1 hour at room temperature with shaking. After blocking, the blocking solution was removed but the wells were not washed. […]
The source holds these as a separate data set.

Assay [4] concerns the target T2, Humanized TMC-2206 (hIgG4/κ VH12.0/VL10.0Q).
T2 construct: labelled with Eu or Alexa-488 in some assays
In words: fusion protein competing Eu-humanized TMC-2206 off α2β1-coated plates. The text has this: The inhibition curves were fitted with the “one site competition” model using Prism software (GraphPad, Inc.) to obtain IC₅₀ values and to calculate the Kᵢ using the equation of Cheng and Prusoff (1973) and the respective values for KD from above.
The cloning of the human, rhesus macaque, rat, and mouse α2 I domains were described in Example 12. Cynomolgus and additional rhesus monkey α2 I domains were cloned from cDNA derived from total RNA extracted from skin tissue (MediCorp, Inc., Montreal, QC).

Assay [5] has as its target T1, TMC-2206. In words: fusion protein competing Eu-TMC-2206 off α2β1-coated plate. This is another data set of the same source.
The target in assay [6] is T1, TMC-2206. In words: ELISA, GST fusion protein on immobilized TMC-2206 (Kd apparent). As for the experimental part:
The fusion proteins were then expressed and purified as described above for the human GST-α2 I domain fusion protein. […] Therefore, these and the primate fusion proteins were further purified by size exclusion chromatography on a Sephadex 75 10/30 (GE-Amersham) column (primate) by FPLC on an Akta-Basic FPLC system (GE-Amersham) to yield a monomeric fraction. […] The Kᵢ assays were performed as described above in Example 2. […] Plates were sealed and coating occurred overnight at 4° C. The next morning, the plates were washed twice with TBS solution and then blocked using 200 μL of the blocking solution described above for 1 hour at room temperature with shaking. After blocking, the blocking solution was removed but the wells were not washed. Instead, a serial dilution of GST fusion protein was made, added to the wells and then incubated for 2 hours at room temperature with shaking. The wells were then aspirated and a TBS washing buffer applied for 5 minutes at room temperature. The washing step was repeated twice more before the secondary antibody was applied. The secondary antibody step consisted of Amersham's HRP-conjugated rabbit anti-GST antibody diluted 1:2000 in blocking buffer. One hundred μL of secondary antibody was added to each well and incubated at room temperature for 1.5 hours with shaking. The wells were again aspirated and washed three times with wash buffer before adding the substrate reaction mixture. One hundred μL of substrate reaction mixture (1:1 dilution of TMB kit) was then added to each well for 6 minutes. The reaction was stopped by adding 100 μL of 0.1M H₂SO₄. The reaction within the wells was then read and quantified by spectrophotometric absorption using the Molecular Dynamics plate reader and associated Softmax software, respectively. Kd values were then estimated from the EC₅₀ values using Prism software (Graphpad, Calif.).

In assay [7] the target is T3, human platelet α2β1 integrin (immobilized on microtiter plates) (human, UniProt P17301 30-1181; P05556 21-798).
T3 construct: plates custom-coated with human platelet α2β1 by GTI Inc; also called immobilized α2β1 integrin; α2β1-coated plates
The assay is described as follows: competition with Eu-TMC-2206 on human platelet α2β1-coated plate. As for the experimental part:
(§1) Each labeled antibody mixture was applied to a separate PD-10 column (GE Biosciences, Piscataway, N.J.) pre-equilibrated with Running Buffer (50 mM Tris, pH 7.4 and 138 mM NaCl). Fractions (0.5 mL) were collected and assayed for total protein (Bradford reagent; Bio-Rad Laboratories, Hercules, Calif.) using a SpectraMax 384 absorbance plate reader and for europium after 1:10.000 dilution in DELFIA Enhancement Solution (Perkin-Elmer) by time-resolved fluorescence (TRF) using a Victor2 multi-label plate reader (Perkin Elmer). The fractions that were positive for both protein and Eu label were pooled and applied to new PD-10 columns and samples collected and assayed for total protein and for europium content by TRF calibrated against a europium standard solution (Perkin-Elmer) to calculate the fluor: protein ratio. […] After incubating the sealed plates for 1 hr at 37° C. to allow binding to reach equilibrium, 2 μL samples were transferred from each well into a fresh well containing DELFIA Enhancement Solution (100 μL/well; Perkin-Elmer) for the measurement of free (unbound) label. Enhancement Solution (100 μL/well) was added to the emptied wells for the measurement of bound label. The plate was shaken (Titer Plate Shaker speed setting of 5 for 5 minutes at room temperature) and time-resolved fluorescent (TRF) intensities were read using a Victor2 multi-label plate reader (Perkin-Elmer Wallac, Boston, Mas.).

Assay [8] deals with T3, human platelet α2β1 integrin …. In words: competition with Eu-TMC-2206 on human platelet α2β1-coated plate, Cheng-Prusoff. As for the experimental part:
as §1, with “Enhancement Solution (100 μL/well) was added to the emptied wells for the measurement of bound label.” left out

The target is the same in assay [9]. The assay is described as follows: competition with Eu-TMC-2206 on human platelet α2β1-coated plate. This is another data set of the same source.
The target of assay [10] is human α2 integrin with endogenous hamster β1 on CHO cells (human; hamster). In words: cell-based or functional assay.
Sequence of human α2 integrin with endogenous hamster β1 on CHO cells (human; hamster) (P17301 30-1181 E534K): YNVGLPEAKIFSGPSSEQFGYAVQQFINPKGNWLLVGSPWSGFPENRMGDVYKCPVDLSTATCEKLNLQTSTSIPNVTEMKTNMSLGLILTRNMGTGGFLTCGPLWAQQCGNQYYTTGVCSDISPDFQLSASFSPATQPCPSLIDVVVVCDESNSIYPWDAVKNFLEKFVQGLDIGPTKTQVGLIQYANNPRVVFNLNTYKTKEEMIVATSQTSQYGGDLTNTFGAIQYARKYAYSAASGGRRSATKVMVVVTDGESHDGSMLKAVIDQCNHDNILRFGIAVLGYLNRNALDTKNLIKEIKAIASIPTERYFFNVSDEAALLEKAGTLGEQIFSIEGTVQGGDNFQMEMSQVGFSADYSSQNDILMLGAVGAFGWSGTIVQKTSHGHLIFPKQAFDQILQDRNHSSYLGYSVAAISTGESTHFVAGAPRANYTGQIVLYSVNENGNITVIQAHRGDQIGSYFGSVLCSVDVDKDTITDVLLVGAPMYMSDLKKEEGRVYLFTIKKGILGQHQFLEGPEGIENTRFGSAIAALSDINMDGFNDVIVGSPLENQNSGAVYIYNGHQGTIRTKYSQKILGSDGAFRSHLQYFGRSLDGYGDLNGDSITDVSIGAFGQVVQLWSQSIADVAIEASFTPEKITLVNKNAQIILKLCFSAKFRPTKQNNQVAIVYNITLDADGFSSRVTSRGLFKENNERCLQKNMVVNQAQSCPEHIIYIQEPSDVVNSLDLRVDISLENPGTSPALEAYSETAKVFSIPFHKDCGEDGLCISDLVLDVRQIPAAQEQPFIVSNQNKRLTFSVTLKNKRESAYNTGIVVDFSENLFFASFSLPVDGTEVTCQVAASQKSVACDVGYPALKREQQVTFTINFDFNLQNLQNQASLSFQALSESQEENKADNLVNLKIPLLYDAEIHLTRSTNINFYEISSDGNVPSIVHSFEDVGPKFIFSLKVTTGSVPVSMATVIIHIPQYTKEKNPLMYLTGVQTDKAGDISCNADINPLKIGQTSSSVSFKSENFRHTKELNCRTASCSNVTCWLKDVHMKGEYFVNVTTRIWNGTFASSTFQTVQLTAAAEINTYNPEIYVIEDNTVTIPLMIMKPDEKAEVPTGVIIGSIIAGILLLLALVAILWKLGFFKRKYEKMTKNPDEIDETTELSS

T3 sequence (P17301 30-1181 E534K limits assumed, chain 1 of 2): as the sequence (P17301 30-1181 E534K) above
T3 sequence (P05556 21-798 limits assumed, chain 2 of 2): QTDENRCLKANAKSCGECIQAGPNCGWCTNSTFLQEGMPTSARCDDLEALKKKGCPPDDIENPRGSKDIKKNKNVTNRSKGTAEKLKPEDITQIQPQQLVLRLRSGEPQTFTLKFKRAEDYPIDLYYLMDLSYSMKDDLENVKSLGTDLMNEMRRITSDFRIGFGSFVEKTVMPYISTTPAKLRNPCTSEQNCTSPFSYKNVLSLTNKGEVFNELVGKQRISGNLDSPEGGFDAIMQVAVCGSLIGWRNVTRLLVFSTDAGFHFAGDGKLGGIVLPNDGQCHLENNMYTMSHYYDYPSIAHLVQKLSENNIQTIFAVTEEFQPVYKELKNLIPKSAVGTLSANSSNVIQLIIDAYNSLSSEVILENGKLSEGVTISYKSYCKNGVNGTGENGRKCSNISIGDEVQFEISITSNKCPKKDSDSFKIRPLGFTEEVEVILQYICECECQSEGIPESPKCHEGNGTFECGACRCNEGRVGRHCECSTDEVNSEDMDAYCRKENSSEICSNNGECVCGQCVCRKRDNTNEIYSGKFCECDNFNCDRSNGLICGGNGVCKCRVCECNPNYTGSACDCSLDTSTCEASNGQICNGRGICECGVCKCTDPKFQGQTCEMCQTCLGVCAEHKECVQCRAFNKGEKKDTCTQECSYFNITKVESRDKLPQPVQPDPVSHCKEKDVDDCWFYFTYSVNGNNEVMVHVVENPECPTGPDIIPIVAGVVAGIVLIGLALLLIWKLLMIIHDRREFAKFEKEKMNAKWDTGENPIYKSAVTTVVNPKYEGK
T2 sequence (heavy, as listed by the source, chain 1 of 2): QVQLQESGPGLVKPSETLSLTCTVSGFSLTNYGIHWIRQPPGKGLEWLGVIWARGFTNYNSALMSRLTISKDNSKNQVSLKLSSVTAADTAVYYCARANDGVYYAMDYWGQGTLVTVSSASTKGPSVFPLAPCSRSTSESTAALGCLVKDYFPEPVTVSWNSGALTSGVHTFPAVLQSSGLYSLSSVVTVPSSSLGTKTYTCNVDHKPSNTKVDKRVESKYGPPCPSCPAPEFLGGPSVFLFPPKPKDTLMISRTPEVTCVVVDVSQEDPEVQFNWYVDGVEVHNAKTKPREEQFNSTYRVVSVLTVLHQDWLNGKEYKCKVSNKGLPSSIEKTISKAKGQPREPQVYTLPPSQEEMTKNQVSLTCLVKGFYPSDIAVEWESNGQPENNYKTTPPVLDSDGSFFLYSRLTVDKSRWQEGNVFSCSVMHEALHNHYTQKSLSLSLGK
T2 sequence (light, as listed by the source, chain 2 of 2): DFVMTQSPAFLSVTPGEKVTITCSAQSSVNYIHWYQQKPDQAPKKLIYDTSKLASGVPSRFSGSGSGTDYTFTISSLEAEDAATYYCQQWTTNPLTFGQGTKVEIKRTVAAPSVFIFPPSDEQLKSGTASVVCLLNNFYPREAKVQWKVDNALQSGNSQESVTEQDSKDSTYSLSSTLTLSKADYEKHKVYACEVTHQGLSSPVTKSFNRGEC

B1: GST-mouse α2 I domain fusion protein (other)
chain: SPDFQFLTSFSPAVQACPSLVDVVVVCDESNSIYPWEAVKNFLVKFVTGLDIGPKKTQVALIQYANEPRIIFNLNDFETKEDMVQATSETRQHGGDLTNTFRAIEFARDYAYSQTSGGRPGATKVMVVVTDGESHDGSKLKTVIQQCNDDEILRFGIAVLGYLNRNALDTKNLIKEIKAIASTPTERYFFNVSDEAALLEKAGTLGEQIFSIEGTVQGGDNFQMEMSQ
notes: also called murine α2 I-GST fusion protein; not shown: glutathione S-transferase tag encoded by vector pGEX-2TK
B1: in the assay with TMC-2206 [1], the “fold shift in affinity” value was greater than 1500 fold.

B2: GST-human α2 I domain fusion protein (other)
chain: GSSPDFQLSASFSPATQPCPSLIDVVVVCDESNSIYPWDAVKNFLEKFVQGLDIGPTKTQVGLIQYANNPRVVFNLNTYKTKEEMIVATSQTSQYGGDLTNTFGAIQYARKYAYSAASGGRRSATKVMVVVTDGESHDGSMLKAVIDQCNHDNILRFGIAVLGYLNRNALDTKNLIKEIKAIASIPTERYFFNVSDEAALLEKAGTLGEQIFSIEGTVEFIVTD
notes: the reverse primer ends at ...SIEGTV; also called GST-α2 I domain; hα2I; not shown: glutathione S-transferase tag encoded by vector pGEX-2TK
For B2, the Ki turned out to be 180 pM in the assay with TMC-2206 [2], 330 pM in the assay with TMC-2206 [3], 570 pM in assay [4] and 280 pM in the assay with TMC-2206 [5].

B3: GST-hα2 I domain A115T (other)
chain: B2 chain with A117T
notes: same construct as m41; not shown: GST carrier with the pGEX-2TK vector linker at the N end
As for B3, the Ki in the assay with TMC-2206 [2] amounted to 760 pM. Also, in the assay with TMC-2206 [6], the Kd was determined as 190 pM.

B4: mouse-human chimeric TMC-2206 antibody (wild type chimera) (antibody, human IgG1, V domains shown)
VH: QVQLKESGPGLVAPSQSLSITCTVSGFSLTNYGIHWVRQPPGKGLEWLGVIWARGFTNYNSALMSRLIITKDNSQSQVFLKMNSLQPDDSATYFCARANDGVYYAMDYWGQGTSVTVSS
VL: QFVLTQSPAFLSASPGEKVTMTCSANSSVNYIHWYQQKSGTSPKKWIYDTSKLASGVPVRFSGSGSGTSYSLTISSMETEDAATYYCQQWTTNPLTFGAGTRVELK
notes: murine VH and VL on human IgG1 Fc and human κ constant region; also called wt chimera
As for B4, the Ki stood at 260 pM in assay [7], 270 pM in assay [8] and 520 pM in assay [9]. Besides, the “EC50, inhibition of adhesion of CHO-α2 cells to collagen Type I” value in assay [10] came to 1800 pM.

B5: mouse-human chimeric TMC-2206 antibody carrying the two LC mutations of the SalI site (antibody, human IgG1, V domains shown)
VH: B4 VH
VL: B4 VL with E104D, L105I
notes: human IgG1 Fc and human κ constant region; 'L1061' is printed for L106I; also called chimeric form carrying the two LC mutations
In assay [8], B5 had a Ki of 270 pM.

B6: GST-rhesus α2 I domain fusion protein (other)
chain: SPDFQLSASFSPATQPCPSLIDVVVVCDESNSIYPWDAVKNFLEKFVQGLDIGPTKTQVGLIQYANNPRVVFNLNTYKTKEEMIVATSQTSQYGGDLTNTFGAIQYARKYAYSAASGGRRSATKVMVVVTDGESHDGSMLKAVIDQCNHDNILRFGIAVLGYLNRNALDTKNLIKEIKAIASIPTERYFFNVSDEAALLEKAGTLGEQIFSIEGTV
notes: also called rhesus GST-α2 I; not shown: glutathione S-transferase tag encoded by vector pGEX-2TK
For the molecule B6, the figures for the Ki (with TMC-2206 [3]; in [4]) were 4400 pM and 400 pM, respectively.

B7: GST-cynomolgus α2 I domain fusion protein of Example 12 (aspartic acid at position 40) (other)
chain: B6 chain with K40D
notes: also called cynomolgus monkey GST-α2 I; polymorphic cynomolgus I domain; not shown: glutathione S-transferase tag encoded by vector pGEX-2TK
Turning to B7, the binding result with TMC-2206 [1] is reported as “no binding (tested: 40 nM)”.
